# Laboratory results published in the supplement of paper PMC9732359.
# ± gives the uncertainty stated by the source.
# Experiment: protein stability index of a GFP-peptide fusion (yeast GPS) (PSI 1-4); higher = more stable; sorted into four equal gates, so the index is relative within each strain
# In short: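 Peptides tiling yeast proteins in 17-residue segments were fused downstream of GFP, with Cherry expressed from the same plasmid. As a pooled library in yeast, mid-log cultures grown in leucine-free medium were sorted into four equal gates by GFP/Cherry fluorescence ratio. Gate plasmids were PCR-amplified and Illumina-sequenced, and barcodes linked reads to strains. Each peptide received a protein stability index equal to the sum of each gate's read frequency times its gate number.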
Sequence,protein stability index (doa10∆),protein stability index (san1∆),protein stability index (ubr1∆),protein stability index (pdr5∆)
VNIVEKDGAKFIEVRNF [RPL9A],3.38 ± 0.19,3.02 ± 0.2,1.71 ± 0.24,–
YMFANLEFSIYHRLSNK [CSN12],2.13 ± 0.072,2.42 ± 0.11,2.25 ± 0.082,2.15 ± 0.076
ERRVLLSAPLSKELRAQ [RPL26B],2.87 ± 0.07,2.89 ± 0.055,2.79 ± 0.043,2.9 ± 0.047
PDPNFENSIGYNNRKCW [PRP8],3.02 ± 0.098,2.98 ± 0.21,3.11 ± 0.12,2.97 ± 0.1
WKTAEEVSALVRSLPKE [PRP8],1.21 ± 0.068,1.28 ± 0.12,1.08 ± 0.051,1.36 ± 0.079
SDKESNAYGFIEWCSRC [YJL039C/NUP192],2.98 ± 0.066,2.97 ± 0.053,2.73 ± 0.063,2.79 ± 0.067
VTFSVMPPKKSWRNITN [SMC4],2 ± 0.11,2.23 ± 0.19,2.82 ± 0.14,2.45 ± 0.15
AEKSYLYDSLASTPSIR [RRP42],2.57 ± 0.15,2.46 ± 0.19,3.2 ± 0.11,2.33 ± 0.1
PAGHAGNPTNISSPIVA [YDL088C/ASM4],2.52 ± 0.068,2.67 ± 0.064,3.02 ± 0.046,2.71 ± 0.065
KMFIQRILAMCVKNHGQ [YCS4],1.69 ± 0.062,2.22 ± 0.071,1.92 ± 0.057,2.1 ± 0.055
KNVRTRIKLATTSERVS [RRI1],2.6 ± 0.058,2.8 ± 0.086,2.36 ± 0.074,2.56 ± 0.058
QEHNIQDSNVMPGSQIN [SNF2],3.11 ± 0.074,2.68 ± 0.07,3.31 ± 0.062,3.11 ± 0.057
ADLSSSEEEEDEEENGS [SSN2],3.36 ± 0.087,3.59 ± 0.084,3.29 ± 0.064,3.51 ± 0.12
GVKNNLLTPKSGEPIIA [RPO31],–,–,2.62 ± 0.22,–
EAKDAIIELENINAKME [YIL149C/MLP2],3.06 ± 0.091,3.02 ± 0.08,2.84 ± 0.088,3.12 ± 0.099
RTDQYTIDNIDSENFSF [YMR129W/POM152],2.88 ± 0.042,2.91 ± 0.039,3.01 ± 0.036,2.99 ± 0.043
TIISPHKDIPEEDFYTV [DSN1],3.21 ± 0.095,2.44 ± 0.28,3.19 ± 0.054,3.23 ± 0.15
ITKMLASDESLLRYGGA [RPN2],3.28 ± 0.11,3.23 ± 0.11,3.82 ± 0.22,3.41 ± 0.17
IQDSNGDVKNMEDVKIQ [SWI3],2.86 ± 0.071,2.41 ± 0.1,2.94 ± 0.061,2.8 ± 0.091
WELYTDFNEIVQYLSGA [POP3],2.55 ± 0.13,2.4 ± 0.075,2.43 ± 0.075,2.31 ± 0.12
VSVRKHLERNRKDKDAK [RPS13],3.38 ± 0.16,–,3.28 ± 0.099,3.31 ± 0.095
ISTPIINAVLVNDNDER [RPO31],2.25 ± 0.085,2.31 ± 0.12,2.21 ± 0.086,2.22 ± 0.1
RASLVPGTVLILLAGRF [RPL6A],1.67 ± 0.054,1.78 ± 0.1,1.75 ± 0.082,1.93 ± 0.084
ADKVYTKENLEVSGENV [QCR2],3.44 ± 0.1,3.2 ± 0.092,3.28 ± 0.052,3.59 ± 0.072
IKVENLNDTTEKSKALE [SMC2],3.07 ± 0.082,3.35 ± 0.052,3.25 ± 0.059,3.3 ± 0.092
CYFRDFEYCRIDGSTSH [ISW2],2.51 ± 0.071,2.48 ± 0.069,1.88 ± 0.042,2.5 ± 0.079
SSTYYNLDYLFELIELV [NUT1],–,2.78 ± 0.15,–,2.62 ± 0.17

Sequence,protein stability index (doa10∆),protein stability index (san1∆),protein stability index (ubr1∆),protein stability index (pdr5∆)
QQLVDSEKRLDHFIHLR [SNF12],2.3 ± 0.12,2.56 ± 0.078,2.68 ± 0.076,2.75 ± 0.07
EKAIPKDQRATTPYMTK [RPO26],2.85 ± 0.043,2.97 ± 0.046,3.03 ± 0.044,2.98 ± 0.047
CAINSKSRGSDLQYLGE [RRP6],3.11 ± 0.06,2.7 ± 0.069,3.2 ± 0.053,3.18 ± 0.068
PNALKPLSESLRLVDDD [RRP6],3.15 ± 0.091,2.82 ± 0.093,3.23 ± 0.055,3.34 ± 0.081
QVPLQQTQAIAQQQQLS [YGR119C/NUP57],2.14 ± 0.08,2.15 ± 0.077,2.29 ± 0.06,2.41 ± 0.076
PDRQSMDSRVAHGNILI [SRB5],3.14 ± 0.09,3.02 ± 0.058,3.14 ± 0.05,3.12 ± 0.064
PDIADIPRTFRTPVPST [SNF5],2.12 ± 0.093,2.04 ± 0.064,2.01 ± 0.072,1.96 ± 0.059
KLLQLAGVEDVYTQSNG [RPS2],1.56 ± 0.066,3.19 ± 0.13,3.13 ± 0.086,2.64 ± 0.13
SHTDQPANVLLVQSLND [NNF1],2.07 ± 0.071,2.23 ± 0.18,2.7 ± 0.09,2.16 ± 0.083
PVAKWFVKFITYLTQEI [SIN4],2.32 ± 0.048,1.76 ± 0.078,2.07 ± 0.064,1.88 ± 0.046
DRSASRAVFLFRCKETH [RPC82],1.77 ± 0.084,–,3.02 ± 0.17,3.07 ± 0.15
FPPPSVAARAEILRIHS [RPT6],1.72 ± 0.074,1.54 ± 0.12,1.74 ± 0.046,2.5 ± 0.085
DWVRFLALALGILYMGQ [RPN1],1.36 ± 0.096,2.08 ± 0.14,1.24 ± 0.18,1.45 ± 0.086
EKYEDEDEEKILDNTEN [DSN1],3.52 ± 0.15,3.01 ± 0.26,3.21 ± 0.091,3.16 ± 0.1
PEDALVNDFSDITSDQL [SMC3],3.32 ± 0.076,3.15 ± 0.081,3.31 ± 0.062,2.85 ± 0.091
VNNCIWALKSSLNSMTN [RGR1],2.71 ± 0.1,–,2.37 ± 0.16,2.39 ± 0.22
NNPKVKTSKRTKRWYKN [RPS11A],3.36 ± 0.091,3.21 ± 0.12,3.19 ± 0.087,3.28 ± 0.094
MDKKILLNINGSRKVAG [SMX2],1.57 ± 0.06,1.81 ± 0.09,2.11 ± 0.047,1.84 ± 0.066
TTVPFKESDDPSIPLVI [POP1],2.8 ± 0.068,2.87 ± 0.054,2.89 ± 0.077,3.01 ± 0.069
KYLLTQRVFKPVDITMM [PRP8],2.98 ± 0.081,3.02 ± 0.079,2.31 ± 0.1,2.99 ± 0.11
GDYSQATVLSRKILKKT [RPN5],2.68 ± 0.054,2.75 ± 0.06,2.95 ± 0.051,2.87 ± 0.067
VAALVSLTEKFSQTVAD [ECM29],2.77 ± 0.08,1.8 ± 0.14,1.67 ± 0.085,1.61 ± 0.059
LQKEKELHKEGTISKLE [SMC2],2.89 ± 0.075,1.83 ± 0.06,2.5 ± 0.05,3.08 ± 0.08
TGKYGVRYGSSLRRQVK [RPL43A],3 ± 0.079,3.42 ± 0.057,3.06 ± 0.046,3.23 ± 0.066
VCMHCGKLLLDEHNELM [RPO21],–,2.77 ± 0.28,3.14 ± 0.084,2.94 ± 0.18
QDGGIMGSLINGITLAL [SKI6],3.11 ± 0.075,2.53 ± 0.057,2.66 ± 0.047,2.58 ± 0.058
